The record followed here is US20240301076A1.

This assay has as its target human CXCR2 (human) (UniProt P25025). In words: cell-based or functional assay.

Sequence of human CXCR2 (human) (P25025 whole entry): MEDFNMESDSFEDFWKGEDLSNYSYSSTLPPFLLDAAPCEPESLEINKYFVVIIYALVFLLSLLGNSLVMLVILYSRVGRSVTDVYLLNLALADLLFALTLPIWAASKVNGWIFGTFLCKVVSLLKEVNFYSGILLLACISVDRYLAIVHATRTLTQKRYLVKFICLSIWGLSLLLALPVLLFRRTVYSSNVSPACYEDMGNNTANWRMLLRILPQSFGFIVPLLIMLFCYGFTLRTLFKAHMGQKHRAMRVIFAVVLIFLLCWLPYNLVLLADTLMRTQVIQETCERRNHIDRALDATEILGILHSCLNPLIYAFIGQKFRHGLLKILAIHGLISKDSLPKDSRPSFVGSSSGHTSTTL

B1: human CXCL7 (ligand, UniProt P02775 59-128, looked up)
chain: AELRCMCIKTTSGIHPKNIQSLEVIGKGTHCNQVEVIATLKDGRKICLDPDAPRIKKIVQKKLAGDESAD
B1: the EC50 mean, Tango assay turned out to be 39.6 nM and the EC50 mean, calcium flux assay stood at 7.14 nM.
